Ends that are not written are not given here.

The target in the assay is T1, peptide 13 (TSESGELHGLTTE) (human, also: biotinylated, site not given here).
T1 construct: on the D-strand
T1 peptide: TSESGELHGLTTE
In words: ELISA: antibody titrated on NeutrAvidin-captured biotinylated peptide, non-linear regression. On the procedure:
ELISA assay was then utilized to identify the corresponding epitope(s) for each antibody. 5 μg/mL of NeutrAvidin (Pierce, USA) in 50 mM pH 9.6 sodium carbonate/bicarbonate buffer was used to coat 96-well Corning high-binding EIA/RIA plates. The plates were washed three times with TBST buffer and blocked with Superblock (Pierce, USA). Fifty to one hundred microliters of the biotinylated peptides were diluted with PBS to […] and added to each well and incubated at room temperature for one hour. […] After one hour room temperature incubation and washing steps, HRP-conjugated secondary antibody was applied. Goat-anti-mouse IgG or Fc HRP conjugates were used in the case of mouse monoclonal antibodies while goat-anti-rabbit IgG HRP conjugate antibody was used for rabbit polyclonal detection. TMB was used as the HRP substrate for the detections.
(In general: In an ELISA, binding on a coated surface is turned into a signal by an enzyme label.)

B1: MFD108 (antibody, V domains shown)
VH: EVQLVESGGDLVKPGGSLKLSCAASGFTFSNYGMSWVRQTPDKRLEWVATITSGGSYTYYPDSVKGRFTISRDNAKNTLYLQMSSLKSEDTAMYYCARDGTAWFAYWGQGTLVTVSA
VL: DIQMTQTTSSLSASLGDRVTISCRASQDISNYLNWYQQKPDGTVKLLIYYTSRLHSGVPSRFSGSGSGTDYSLTISNLEEEDIATYFCQQGNTLRTFGGGTKLEIK
notes: Mouse monoclonal IgG1, kappa light chain; also called mouse monoclonal antibody MFD108; hybridoma ATCC PTA-120816
On to B1, for which binding was characterised by a dissociation constant (Kd) of 0.25 nM.

A word on the Kd: it is the constant that tells how readily two partners part at equilibrium. Low values mean tighter binding, high ones weaker binding.

The record behind these values is patent US20180022797A1 (published 2018).
